T1: human claudin-9 (Homo sapiens, UniProt O95484)
T1 sequence (O95484 1-217): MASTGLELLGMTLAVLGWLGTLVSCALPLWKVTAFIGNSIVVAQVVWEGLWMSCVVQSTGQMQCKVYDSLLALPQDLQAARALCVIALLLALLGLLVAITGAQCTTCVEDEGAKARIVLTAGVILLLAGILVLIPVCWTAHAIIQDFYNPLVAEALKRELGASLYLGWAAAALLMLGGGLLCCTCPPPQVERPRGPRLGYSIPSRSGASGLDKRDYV

T2: human claudin-3 (Homo sapiens, UniProt O15551)
T2 sequence (O15551 1-220): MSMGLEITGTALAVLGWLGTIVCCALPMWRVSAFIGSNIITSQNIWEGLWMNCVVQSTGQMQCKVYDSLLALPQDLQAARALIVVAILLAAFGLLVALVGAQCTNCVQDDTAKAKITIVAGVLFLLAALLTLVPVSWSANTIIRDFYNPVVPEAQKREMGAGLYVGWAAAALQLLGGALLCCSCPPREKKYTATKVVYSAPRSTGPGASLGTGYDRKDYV

T3: human claudin-4 (Homo sapiens, UniProt O14493)
T3 sequence (O14493 1-209): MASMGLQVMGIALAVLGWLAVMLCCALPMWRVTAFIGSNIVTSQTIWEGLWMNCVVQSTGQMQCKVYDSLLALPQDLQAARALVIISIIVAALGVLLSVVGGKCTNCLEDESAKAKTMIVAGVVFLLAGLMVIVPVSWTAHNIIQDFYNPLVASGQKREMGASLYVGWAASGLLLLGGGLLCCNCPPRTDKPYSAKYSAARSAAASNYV

T4: human claudin-3 (human, UniProt O15551 1-220, limits assumed)
T4 sequence (looked up): T2 sequence (O15551 1-220)

T5: human claudin-9 (human, UniProt O95484 1-217, limits assumed)
T5 sequence (looked up): T1 sequence (O95484 1-217)

B1: C1C2-NP (C1C2 peptide conjugated to PEG diacid coated ultrasmall Gd nanoparticles) (peptide)
peptide: Ac-SSVSQSTGQIQSKVDSLLNLNSTQATR-NH2
modifications: not fully specified; also: conjugated by EDC-NHS chemistry to PEG diacid on Gd oxide nanoparticle surface (19 peptides per 3.5 nm particle)
notes: The protein part is the C1C2 peptide; the core is not a protein; also called C1C2-NPs; C1C2 NPs

Experiments:
human claudin-9 [1] = target: T1, human claudin-9; assay: Microscale thermophoresis (MST) binding; conditions: 0.1% beta-UDM buffer
Description: (§1) Human claudin-1 was expressed and purified as reported previously (Vecchio & Stroud, 2019, PNAS USA, 116:17817-24). MST measurements were performed using a Monolith instrument (NanoTemper Technologies). For experiments with human claudin-1, the assay buffer contained 10 mM Tris HCl, pH 8.0, 100 mM NaCl, 4% glycerol, and 0.04% n-Dodecyl-β-D-Maltopyranoside (β-DDM). NPs and peptides were labeled with AF647 prior to MST analysis as described above. For the binding experiments, the concentration of human claudin-1 was varied from 2.2-73,500 nM and the AF647-labeled C1C2-NP was fixed at 70 nM, while the AF647 labeled NPs and AF647 labeled C1C2 peptide were fixed at 1 and 0.3 μM, respectively. Binding of the AF647 labeled C1C2-NP to human claudin-3, -4, and -9 were tested using 0.4-14000 nM, 0.8-28000 nM, and 0.6-20000 nM, respectively; with the AF647 labeled C1C2-NP fixed at 70 nM. This assay buffer was similar, except β-DDM was replaced with 0.1% n-Undecyl-β-D-Maltopyranoside (beta-UDM). In order to check non-specific binding of β-DDM micelles to the AF647 labeled C1C2-NP, the concentration of beta-DDM was varied from 0.03-900 μM and the concentration of the AF647-labeled C1C2-NP was fixed at 1 μM. A similar experiment was performed wherein the concentration of beta-UDM was varied from 0.3-10,000 μM and the concentration of AF647-labeled control NP was fixed at 1 μM. The non-specific binding of human claudins 4 and 9 to the NP was examined by varying the concentrations of human claudins 4 and 9 from 0.7-20,100 nM and 0.8-31,100 nM, respectively. The human claudin sub-dilutions were mixed with the NPs or peptides and loaded in standard monolith NT.115 capillary tubes for measurement. All experiments were conducted at 23° C. using the nano-red channel of the Monolith instrument and the data were analyzed by using either Monolith analysis software or Graph Pad Prism, version 9 (Graph Pad Software, San Diego, California).

human claudin-3 [2] = target: T2, human claudin-3; assay: Microscale thermophoresis (MST) binding; conditions: 0.1% beta-UDM buffer
Description: as §1

human claudin-4 = target: T3, human claudin-4; assay: Microscale thermophoresis (MST) binding; conditions: 0.1% beta-UDM buffer
Description: as §1

[3] = MST check of non-specific binding to detergent micelles; conditions: NP fixed at 1 μM, β-DDM varied; data not shown
Description: as §1, with “In order to check non-specific binding of β-DDM micelles to the AF647 labeled C1C2-NP, the concentration of beta-DDM was varied from 0.03-900 μM and the concentration of the AF647-labeled C1C2-NP was fixed at 1 μM. A similar experiment was performed wherein the concentration of beta-UDM was varied from 0.3-10,000 μM and the concentration of AF647-labeled control NP was fixed at 1 μM. The non-specific binding of human claudins 4 and 9 to the NP was examined by varying the concentrations of human claudins 4 and 9 from 0.7-20,100 nM and 0.8-31,100 nM, respectively. The human claudin sub-dilutions were mixed with the NPs or peptides and loaded in standard monolith NT.115 capillary tubes for measurement.” left out

human claudin-3 [4] = target: T4, human claudin-3; assay: MST, sigmoidal dose-response fit (GraphPad Prism) of the FIG. 10A data, M is the unit of the concentration axis of panel A; fit without amplitude, confidence interval undefined [panel B]
Description: (§2) FIG. 10A is a graph showing binding of human claudins 3, 4 and 9 to C1C2-NPs using microscale thermophoresis. […] FIG. 10C is a graph showing the binding of human claudins 4 and 9 to control NPs monitored using microscale thermophoresis. […] Data fitting for human claudins 3, 4 and 9 were performed using Graph Pad Prism.
(§3) Human claudin-1 was expressed and purified as reported previously (Vecchio & Stroud, 2019, PNAS USA, 116:17817-24). MST measurements were performed using a Monolith instrument (NanoTemper Technologies). For experiments with human claudin-1, the assay buffer contained 10 mM Tris HCl, pH 8.0, 100 mM NaCl, 4% glycerol, and 0.04% n-Dodecyl-β-D-Maltopyranoside (β-DDM). NPs and peptides were labeled with AF647 prior to MST analysis as described above. For the binding experiments, the concentration of human claudin-1 was varied from 2.2-73,500 nM and the AF647-labeled C1C2-NP was fixed at 70 nM, while the AF647 labeled NPs and AF647 labeled C1C2 peptide were fixed at 1 and 0.3 μM, respectively. Binding of the AF647 labeled C1C2-NP to human claudin-3, -4, and -9 were tested using 0.4-14000 nM, 0.8-28000 nM, and 0.6-20000 nM, respectively; with the AF647 labeled C1C2-NP fixed at 70 nM. This assay buffer was similar, except β-DDM was replaced with 0.1% n-Undecyl-β-D-Maltopyranoside (beta-UDM).

human claudin-9 [5] = target: T5, human claudin-9; assay: MST, sigmoidal dose-response fit (GraphPad Prism) of the FIG. 10A data, M is the unit of the concentration axis of panel A; fit did not converge [panel B]
Description: as §2, §3

| Molecule | Binding to human claudin 9 (in words) (human claudin-9 [1]; listed as AF647-C1C2-NP) | Binding to human claudin 9 (in words) (human claudin-9 [1]; listed as C1C2-NPs) | Binding to human claudin 3 (in words) (human claudin-3 [2]; listed as AF647-C1C2-NP) | Binding to human claudin 3 (in words) (human claudin-3 [2]; listed as C1C2-NPs) | Binding to human claudin 4 (in words) (human claudin-4; listed as AF647-C1C2-NP) | Binding to human claudin 4 (in words) (human claudin-4; listed as C1C2-NPs) | Non-specific binding to β-DDM micelle [3] | EC50 (human claudin-3 [4]) | EC50 (human claudin-9 [5]) |
| --- | --- | --- | --- | --- | --- | --- | --- | --- | --- |
| C1C2-NP: PEG diacid coated ultrasmall Gd NP conjugated with C1C2 peptide SSVSQSTGQIQSKVDSLLNLNSTQATR (SEQ ID NO: 6); claudin-1 targeted (Ac-SSVSQSTGQIQSKVDSLLNLNSTQATR-NH2; also: conjugated to PEG diacid coated ultrasmall Gd nanoparticle) | weak | the data did not fit | does not show any binding | undefined 95% confidence intervals | weak | undefined 95% confidence intervals | No significant binding |  |  |
| B1 |  |  |  |  |  |  |  | 88.1 nM | 218 mM |
